According to US11732029B2, “Methods and compositions for the treatment of wounds” (The University of Chicago, priority 2017, dated 2023):
No end group written: not given here.

Key:
[1] = test system: full-thickness back-skin wounds in db/db diabetic mice; assay: Retention of VEGF-A165 at the wound site; assay type: in vivo; conditions: db/db mouse; fibrin matrix with 200 ng VEGF-A165/wound; 3 days after treatment; vs without peptide
Protocol: Retention assays were performed as previously reported^1. Briefly, C57BLKS/J-m/Lepr db (db/db) mice ages 10 to 11 wks were used. Their backs were shaved and four full-thickness punch-biopsy wounds (6 mm in diameter) were created in each mouse. Directly after, fibrin matrices [80 μL total, fibrinogen (10 mg/mL), 2 U/mL human thrombin, 4 U/mL factor XIII, 5 mM calcium chloride, 2 μM α2PI1-8-α33043-3067, 200 ng of recombinant human VEGF-A165] were polymerized on the wounds. To avoid drying of the matrices, the wounds were covered with non-adhering dressing (Adaptic, Johnson & Johnson), and then with adhesive film dressing (Hydrofilm, Hartmann). After 3 or 6 days, mice were sacrificed. The wounds were punched again, in order to recover the fibrinous matrices. Moreover, the tissue surrounding the wounds (2 mm beyond the wound margin) was removed. The tissue was transferred in 0.9 mL of tissue T-PER Tissue Protein Extraction Reagent (Thermo Scientific) containing 1 mg/mL of collagenase IV (Sigma-Aldrich), and homogenized with a tissue homogenizer. […] Recombinant human VEGF-A165 remaining in the fibrinous matrix and in the tissue surrounding the wound were quantified by ELISA (DuoSet, R&D Systems), using 200 ng of recombinant human VEGF-A165 as 100%.

GF binding to laminin = assay: Inhibition of laminin-GF binding by heparin (ELISA); conditions: heparin added in excess (10 μM); VEGF-A165, PlGF-2 or FGF-2
Protocol: ELISA plates (med-binding) were coated with 10 μg/mL laminin isoforms (−111, −211, −221, −411, −421, −511, and −521) in PBS for 2 hrs at 37° C. Then, wells were blocked with 2% BSA-containing PBS-T and further incubated with 1 μg/mL each of VEGF-A165, PlGF-2, or FGF-2 for 60 min at RT with 10 μM heparin. Next, the wells were incubated with biotinylated anti-VEGF, anti-PlGF, or anti-FGF-2 antibodies (R&D Systems). The antibodies were detected by streptavidin-HRP (R&D Systems).

vWF binding to the GFs = vWF binding to the GFs (Homo sapiens, UniProt P04275); assay: Inhibition of vWF-GF binding by heparin (ELISA); conditions: excess (10 μM) heparin; VEGF-A165, PlGF-2 or FGF-2
Protocol: ELISA plates (med-binding) were coated with 10 μg/mL vWF. Then, wells were blocked with 2% BSA-containing PBS-T and further incubated with 1 μg/mL each of VEGF-A, PlGF-2, or FGF-2 for 60 min at room temperature (RT) with 10 μM heparin. Next, the wells were incubated with biotinylated anti-VEGF-A, anti-PlGF, or anti-FGF-2 antibodies (R & D Systems). The antibodies were detected by streptavidin-HRP (R & D Systems). Color development and the absorbance measurement were done as described above.

CXCL-11 = molecular target: T1, CXCL-11 (Homo sapiens, UniProt O14625); assay: Laminin binding to recombinant GFs (ELISA); conditions: ELISA A450 nm; signals greater than 0.1 = binding
T1 construct: All growth factors (GFs) and chemokines were purchased in their mature forms; purchased PeproTech; host or cells: Escherichia coli
T1 sequence (O14625 22-94): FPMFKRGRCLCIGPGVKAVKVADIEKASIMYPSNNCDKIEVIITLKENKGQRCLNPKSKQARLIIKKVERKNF
Protocol: (§1) ELISA tests were performed as previously reported. In brief, ELISA plates (med-binding, Greiner Bio-One) were coated with 50 nM GFs at 37° C. for more than 2 hrs. After blocking with 2% BSA solution containing PBS and 0.05% Tween 20 (PBS-T), 10 nM recombinant human laminin isoforms (−111, −211, −332, −411, −421, −511, and −521) (>95% purity tested by SDS-PAGE, BioLamina) were added. Bound laminin was detected with rabbit anti-human laminin γ1 chain antibody (1:1000 dilution, Assay biotech) or rabbit anti-human laminin α3 chain antibody (1:1000 dilution, Assay biotech). After incubation with biotinylated anti-rabbit antibody for 60 min at room temperature (RT), HRP conjugated streptavidin (Jackson ImmunoResearch) was added. After 60 min of incubation at RT, 50 μL TMB substrate (Sigma-Aldrich) was added. The reactions were stopped by adding 25 μL of 2N H2SO4. Subsequently, the absorbance at 450 nm was measured with a reference of 570 nm.

CXCL-12α = molecular target: T2, CXCL-12α (Homo sapiens, UniProt P48061); assay: Laminin binding to recombinant GFs (ELISA); conditions: ELISA A450 nm; signals greater than 0.1 = binding
T2 construct: All GFs and chemokines were purchased in their mature forms; purchased PeproTech; host or cells: Escherichia coli
Protocol: as §1

VEGF-A165 [2] = molecular target: T3, VEGF-A165 (Homo sapiens, UniProt P15692); assay: Surface plasmon resonance, laminin against GF; conditions: SPR; laminin protein immobilized on chip, GF flowed; Langmuir binding kinetics
T3 construct: All growth factors (GFs) and chemokines were purchased in their mature forms; purchased PeproTech; host or cells: Escherichia coli
T3 sequence (P15692 27-191 isoform P15692-4 limits assumed): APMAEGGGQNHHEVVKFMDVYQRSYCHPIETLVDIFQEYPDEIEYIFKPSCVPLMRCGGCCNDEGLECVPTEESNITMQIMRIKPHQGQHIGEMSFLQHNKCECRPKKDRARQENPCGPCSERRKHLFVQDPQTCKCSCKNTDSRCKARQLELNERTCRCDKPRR
Protocol: (§2) SPR analysis was performed as described previously^2. In brief, measurements were made with a Biacore 3000 SPR system (GE Healthcare). Laminin-521 or laminin α32928-3150 was immobilized via amine coupling on a C1 chip (GE Healthcare) for ˜2000 or ˜1000 resonance units (RU), respectively, according to the manufacturer's instructions. VEGF-A165, PDGF-BB, or PlGF-2 was flowed at increasing concentrations in the running buffer at 20 μL/min. The sensor chip was regenerated with 50 mM NaOH for every cycle. Specific bindings of GFs to laminin were calculated by comparison to a non-functionalized channel used as a reference. Experimental results were fitted with Langmuir binding kinetics using BIAevaluation software (GE Healthcare).

PDGF-BB [3] = molecular target: T4, PDGF-BB (Homo sapiens, UniProt P01127); assay: Surface plasmon resonance, laminin against GF; conditions: SPR; laminin protein immobilized on chip, GF flowed; Langmuir binding kinetics
T4 construct: All growth factors (GFs) and chemokines were purchased in their mature forms; purchased PeproTech; host or cells: Escherichia coli
Protocol: as §2

PlGF-2 [4] = molecular target: T5, PlGF-2 (Homo sapiens, UniProt P49763); assay: Surface plasmon resonance, laminin against GF; set-up: All GFs and chemokines were purchased in their mature forms; purchased PeproTech; host or cells: Escherichia coli; conditions: SPR; laminin protein immobilized on chip, GF flowed; Langmuir binding kinetics
T5 sequence (P49763 19-170 isoform P49763-3 limits assumed): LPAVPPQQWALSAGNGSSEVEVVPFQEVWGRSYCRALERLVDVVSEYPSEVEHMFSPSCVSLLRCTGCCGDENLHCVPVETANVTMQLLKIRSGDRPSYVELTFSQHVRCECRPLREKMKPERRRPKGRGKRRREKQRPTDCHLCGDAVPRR
Protocol: as §2

VEGF-A165 [5] = molecular target: T3, VEGF-A165; assay: vWF binding to recombinant VEGF-A isoforms (ELISA); conditions: plate coated with 50 nM vWF domains, 1 μg/mL VEGF-A, vs BSA
Protocol: (§3) ELISA was performed as previously reported1. In brief, ELISA plates (med binding: Greiner Bio-One) were coated with 50 nM BSA (GE Healthcare), pro-peptide containing recombinant vWF (Sino Biological), plasma-derived vWF (EMD Millipore), recombinant human vWF A1 domain (U-Protein Express), recombinant human vWF A2 domain (R & D systems), recombinant human vWF A3 domain (U-Protein Express), vWF A1 HBD peptide or scrambled/mutated HBD peptide (all peptides were synthesized by Genscript). After blocking with 2% BSA solution containing PBS-T, 1 μg/mL of recombinant human VEGF-A121 (PeproTech), recombinant human VEGF-A145 (R & D Systems), or recombinant human VEGF-A165 (PeproTech) was added. Bound VEGF-A was detected with 1 μg/mL of mouse anti-human VEGF-A antibody (clone: 26503, R & D systems). After 60 min of incubation, horseradish peroxidase (HRP) conjugated goat anti-mouse antibody (1:2000 dilution, Dako) was added and incubated for another 60 min. Color development and the absorbance measurement were done as described above.

VEGF-A145 = molecular target: T6, VEGF-A145 (Homo sapiens, UniProt P15692); assay: vWF binding to recombinant VEGF-A isoforms (ELISA); conditions: plate coated with 50 nM vWF domains, 1 μg/mL VEGF-A, vs BSA
T6 construct: All GFs and chemokines were purchased in their mature forms; purchased R & D Systems
T6 sequence (P15692 27-171 isoform P15692-6 limits assumed): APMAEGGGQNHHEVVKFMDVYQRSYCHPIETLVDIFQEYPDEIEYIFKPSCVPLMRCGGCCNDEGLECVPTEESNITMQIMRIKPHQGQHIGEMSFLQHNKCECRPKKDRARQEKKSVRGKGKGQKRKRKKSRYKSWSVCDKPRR
Protocol: as §3

CXCL-12γ = molecular target: T7, CXCL-12γ (Homo sapiens, UniProt P48061); assay: Recombinant GF binding to the vWF recombinant protein and A1 HBD peptide (ELISA); conditions: plate coated with vWF protein, A1 domain or HBD peptide, 1 μg/mL GF
T7 construct: All GFs and chemokines were purchased in their mature forms; purchased R & D Systems; host or cells: Escherichia coli
Protocol: (§4) ELISA tests were performed as described above. In brief, ELISA plates were coated with 1 μg/mL of FL-vWF (WT or R1341Q), 1 μg/mL of vWF A1 recombinant protein (U-Protein Express) or 1 μg/mL of vWF A1 HBD peptide (sequence […], (SEQ ID NO:50) chemically synthesized by Genscript) at 37° C. overnight. After blocking with 2% BSA solution containing PBS-T, 1 μg/mL of the recombinant human proteins VEGF-A121, VEGF-A165, PlGF-1, PlGF-2, PDGF-BB, FGF-2, CXCL-12α and CXCL-12γ were added. 1 μg/mL of BSA served as non-binding protein control. Bound GF or chemokine was detected with biotinylated antibodies for human VEGF-A, PlGF, PDGF-BB, FGF-2, or CXCL-12 (R & D Systems). The antibodies were detected by streptavidin-HRP (R & D Systems). Color development and the absorbance measurement were done as described above.

VEGF-A165 [6] = molecular target: T3, VEGF-A165; assay: as above; conditions: plate coated with vWF protein, A1 domain or HBD peptide, 1 μg/mL GF
Protocol: as §4

PDGF-BB [7] = molecular target: T4, PDGF-BB; assay: as above; conditions: plate coated with vWF protein, A1 domain or HBD peptide, 1 μg/mL GF
Protocol: as §4

FGF-2 = FGF-2 (Homo sapiens, UniProt P09038); assay: as above; set-up: All growth factors (GFs) and chemokines were purchased in their mature forms; purchased PeproTech; host or cells: Escherichia coli; conditions: plate coated with vWF protein, A1 domain or HBD peptide, 1 μg/mL GF
Protocol: as §4

PlGF-2 [8] = molecular target: T5, PlGF-2; assay: as above; set-up: All growth factors (GFs) and chemokines were purchased in their mature forms; purchased PeproTech; host or cells: Escherichia coli; conditions: plate coated with vWF protein, A1 domain or HBD peptide, 1 μg/mL GF
Protocol: as §4

T4 sequence (P01127 82-190 limits assumed): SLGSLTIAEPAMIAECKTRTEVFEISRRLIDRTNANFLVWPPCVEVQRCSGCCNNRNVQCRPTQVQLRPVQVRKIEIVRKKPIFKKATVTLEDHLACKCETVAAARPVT
FGF-2, sequence (P09038 143-288): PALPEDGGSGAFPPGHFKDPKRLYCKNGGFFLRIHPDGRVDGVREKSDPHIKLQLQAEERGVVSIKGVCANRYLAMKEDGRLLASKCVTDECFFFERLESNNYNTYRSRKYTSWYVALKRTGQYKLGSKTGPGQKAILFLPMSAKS
T7 sequence (P48061 22-119 isoform P48061-3): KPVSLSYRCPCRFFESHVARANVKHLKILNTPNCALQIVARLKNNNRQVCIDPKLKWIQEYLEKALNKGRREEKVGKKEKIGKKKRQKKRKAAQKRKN
T2 sequence (P48061 22-89 limits assumed): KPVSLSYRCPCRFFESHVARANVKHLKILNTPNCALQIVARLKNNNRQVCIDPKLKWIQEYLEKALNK
vWF binding to the GFs, sequence (P04275 764-2813 limits assumed): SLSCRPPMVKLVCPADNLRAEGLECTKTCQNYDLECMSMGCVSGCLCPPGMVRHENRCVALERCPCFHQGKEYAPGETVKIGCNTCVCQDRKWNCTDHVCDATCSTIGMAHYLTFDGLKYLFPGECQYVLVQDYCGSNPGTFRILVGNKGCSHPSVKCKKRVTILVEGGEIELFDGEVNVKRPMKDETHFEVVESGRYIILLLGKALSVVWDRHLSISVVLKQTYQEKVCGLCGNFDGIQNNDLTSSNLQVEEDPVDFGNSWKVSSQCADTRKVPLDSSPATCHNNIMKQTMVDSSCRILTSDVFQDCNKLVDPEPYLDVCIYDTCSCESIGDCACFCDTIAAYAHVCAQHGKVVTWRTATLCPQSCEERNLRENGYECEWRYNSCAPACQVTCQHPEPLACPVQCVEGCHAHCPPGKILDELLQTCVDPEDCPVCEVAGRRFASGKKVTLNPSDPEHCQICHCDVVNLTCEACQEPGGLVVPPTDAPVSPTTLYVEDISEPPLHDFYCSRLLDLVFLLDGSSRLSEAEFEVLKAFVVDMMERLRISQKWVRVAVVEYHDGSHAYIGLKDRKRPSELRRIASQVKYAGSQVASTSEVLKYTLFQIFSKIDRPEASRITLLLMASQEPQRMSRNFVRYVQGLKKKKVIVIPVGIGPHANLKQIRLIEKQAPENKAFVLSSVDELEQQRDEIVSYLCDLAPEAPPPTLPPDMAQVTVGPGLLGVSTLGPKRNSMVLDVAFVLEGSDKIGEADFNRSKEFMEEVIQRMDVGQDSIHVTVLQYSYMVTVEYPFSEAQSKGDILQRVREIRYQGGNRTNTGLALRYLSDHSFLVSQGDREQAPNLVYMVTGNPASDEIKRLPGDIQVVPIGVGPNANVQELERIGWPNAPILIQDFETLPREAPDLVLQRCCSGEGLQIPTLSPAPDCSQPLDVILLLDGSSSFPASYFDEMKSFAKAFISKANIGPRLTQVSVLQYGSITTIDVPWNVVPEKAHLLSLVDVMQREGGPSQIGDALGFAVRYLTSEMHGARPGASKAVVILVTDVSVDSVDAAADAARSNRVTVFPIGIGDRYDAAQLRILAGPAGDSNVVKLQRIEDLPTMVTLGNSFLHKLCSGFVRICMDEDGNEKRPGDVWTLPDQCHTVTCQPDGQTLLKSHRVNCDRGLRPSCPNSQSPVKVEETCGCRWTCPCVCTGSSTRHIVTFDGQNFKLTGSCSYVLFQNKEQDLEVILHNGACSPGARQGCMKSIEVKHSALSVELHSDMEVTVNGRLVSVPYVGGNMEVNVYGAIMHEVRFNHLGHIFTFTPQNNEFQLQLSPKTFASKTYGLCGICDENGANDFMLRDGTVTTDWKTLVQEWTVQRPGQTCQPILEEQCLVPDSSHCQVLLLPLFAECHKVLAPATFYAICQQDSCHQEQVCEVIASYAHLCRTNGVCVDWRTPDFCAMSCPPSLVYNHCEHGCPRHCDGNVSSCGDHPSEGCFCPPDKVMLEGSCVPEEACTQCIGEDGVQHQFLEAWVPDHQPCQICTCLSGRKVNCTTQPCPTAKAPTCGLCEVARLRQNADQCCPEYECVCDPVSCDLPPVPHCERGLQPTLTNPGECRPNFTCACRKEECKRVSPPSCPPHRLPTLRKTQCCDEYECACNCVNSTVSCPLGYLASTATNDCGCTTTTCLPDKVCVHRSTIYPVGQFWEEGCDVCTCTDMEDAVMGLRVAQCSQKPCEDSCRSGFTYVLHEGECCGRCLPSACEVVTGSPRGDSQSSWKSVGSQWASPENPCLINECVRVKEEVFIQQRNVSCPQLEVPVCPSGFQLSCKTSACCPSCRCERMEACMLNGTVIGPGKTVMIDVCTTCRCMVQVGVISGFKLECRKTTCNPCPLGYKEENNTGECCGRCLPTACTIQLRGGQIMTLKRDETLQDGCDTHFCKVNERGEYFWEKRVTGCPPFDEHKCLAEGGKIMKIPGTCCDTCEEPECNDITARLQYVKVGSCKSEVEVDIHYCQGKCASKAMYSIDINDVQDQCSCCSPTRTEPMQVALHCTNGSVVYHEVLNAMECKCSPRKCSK

Substance: NQEQVSPLRLVFALGTDGKKLRIKSKEKCNDGK [α2PI1-8-α33043-3067]
- amount of VEGF-A165 remaining in the wounds [1]: significantly enhanced

Substance: heparin
- inhibition of GF binding to laminin (GF binding to laminin): inhibited GF binding to laminin
- inhibition of vWF binding to the GFs (vWF binding to the GFs): inhibited vWF binding to the GFs

Substance: laminin-332: recombinant human full-length laminin isoform -332 (BioLamina)
- binding of laminin to CXCL-11 (CXCL-11): bound weakly
- binding of laminin to CXCL-12a (CXCL-12α): bound weakly

Substance: laminin-521: recombinant human full-length laminin isoform -521 (BioLamina)
- Kd (VEGF-A165 [2]): 5.8 nM
- Kd (PDGF-BB [3]): 24.2 nM
- Kd (PlGF-2 [4]): 12.9 nM

Substance: recombinant A1 domain: recombinant human vWF A1 domain (U-Protein Express)
- binding to VEGF-A165 (VEGF-A165 [5]): bound
- binding to VEGF-A145 (VEGF-A145): bound
- binding to CXCL-12γ (CXCL-12γ): strong binding
- binding to VEGF-A165 (VEGF-A165 [6]): strong binding
- binding to PDGF-BB (PDGF-BB [7]): strong binding
- binding to FGF-2 (FGF-2): strong binding
- binding to PlGF-2 (PlGF-2 [8]): strong binding
